B1: KLHDC9 (natural protein, human, UniProt Q8NEP7 1-349, looked up)
chain: MAVAVPPGRAAGSGWAWRPVARDALLARAFHSCTELRGRFYLVGGLLAGGAREPSSDTVVFDPARGQAVRLGARGSPPRSHHDAAPVDGRWLCVVGGWDGSRRLATVTALDTERGVWEAWTGTPGDCPPAGLSSHTCTRISDRELQVAGREGGIHTQRRYGSIYTLRLDPSARTYCYKQEGCHTASRSGHCAALLQTPGPHPGHQLLLFGGCNLAEPEVAGHWSHGKIKEEPPVAPHLMEQLARLVSSGQGSQKGPHGLRHHSCSVVGPFAVLFGGETLTRARDTICNDLYIYDTRTSPPLWFHFPCADRGMKRMGHRTCLWNDQLYLVGGFGEDGRTASPQVCILDFI
notes: KLHDC9; protein on the human proteome microarray; source: spotted on the HuProt human proteome microarray
B2: NTPCR (natural protein, human, UniProt Q9BSD7 1-190, looked up)
chain: MARHVFLTGPPGVGKTTLIHKASEVLKSSGVPVDGFYTEEVRQGGRRIGFDVVTLSGTRGPLSRVGLEPPPGKRECRVGQYVVDLTSFEQLALPVLRNADCSSGPGQRVCVIDEIGKMELFSQLFIQAVRQTLSTPGTIILGTIPVPKGKPLALVEEIRNRKDVKVFNVTKENRNHLLPDIVTCVQSSRK
notes: NTPCR; protein on the human proteome microarray; source: spotted on the HuProt human proteome microarray
B3: ODAM (natural protein, human, UniProt A1E959 16-279, looked up)
chain: APLIPQRLMSASNSNELLLNLNNGQLLPLQLQGPLNSWIPPFSGILQQQQQAQIPGLSQFSLSALDQFAGLLPNQIPLTGEASFAQGAQAGQVDPLQLQTPPQTQPGPSHVMPYVFSFKMPQEQGQMFQYYPVYMVLPWEQPQQTVPRSPQQTRQQQYEEQIPFYAQFGYIPQLAEPAISGGQQQLAFDPQLGTAPEIAVMSTGEEIPYLQKEAINFRHDSAGVFMPSTSPKPSTTNVFTSAVDQTITPELPEEKDKTDSLREP
notes: ODAM; protein on the human proteome microarray; source: spotted on the HuProt human proteome microarray
B4: NAT6 (natural protein, human, UniProt Q93015 1-286, looked up)
chain: MELILSTSPAELTLDPACQPKLPLDSTCQPEMTFNPGPTELTLDPEHQPEETPAPSLAELTLEPVHRRPELLDACADLINDQWPRSRTSRLHSLGQSSDAFPLCLMLLSPHPTLEAAPVVVGHARLSRVLNQPQSLLVETVVVARALRGRGFGRRLMEGLEVFARARGFRKLHLTTHDQVHFYTHLGYQLGEPVQGLVFTSRRLPATLLNAFPTAPSPRPPRKAPNLTAQAAPRGPKGPPLPPPPPLPECLTISPPVPSGPPSKSLLETQYQNVRGRPIFWMEKDI
notes: NAT6; protein on the human proteome microarray; source: spotted on the HuProt human proteome microarray
B5: PYCR2 (natural protein, human, UniProt Q96C36 1-320, looked up)
chain: MSVGFIGAGQLAYALARGFTAAGILSAHKIIASSPEMNLPTVSALRKMGVNLTRSNKETVKHSDVLFLAVKPHIIPFILDEIGADVQARHIVVSCAAGVTISSVEKKLMAFQPAPKVIRCMTNTPVVVQEGATVYATGTHALVEDGQLLEQLMSSVGFCTEVEEDLIDAVTGLSGSGPAYAFMALDALADGGVKMGLPRRLAIQLGAQALLGAAKMLLDSEQHPCQLKDNVCSPGGATIHALHFLESGGFRSLLINAVEASCIRTRELQSMADQEKISPAALKKTLLDRVKLESPTVSTLTPSSPGKLLTRSLALGGKKD
notes: PYCR2; protein on the human proteome microarray; source: spotted on the HuProt human proteome microarray
B6: NUDT6 (natural protein, human, UniProt P53370 1-316, looked up)
chain: MRQPLSWGRWRAMLARTYGPGPSAGYRWASGAQGYVRNPPVGACDLQGELDRFGGISVRLARLDALDRLDAAAFQKGLQAAVQQWRSEGRTAVWLHIPILQSRFIAPAASLGFCFHHAESDSSTLTLWLREGPSRLPGYASHQVGVAGAVFDESTRKILVVQDRNKLKNMWKFPGGLSEPEEDIGDTAVREVFEETGIKSEFRSVLSIRQQHTNPGAFGKSDMYIICRLKPYSFTINFCQEECLRCEWMDLNDLAKTENTTPITSRVARLLLYGYREGFDKIDLTVEELPAVYTGLFYKLYHKELPENYKTMKGID
notes: NUDT6; protein on the human proteome microarray; source: spotted on the HuProt human proteome microarray
B7: POP7 (natural protein, human, UniProt O75817 1-140, looked up)
chain: MAENREPRGAVEAELDPVEYTLRKRLPSRLPRRPNDIYVNMKTDFKAQLARCQKLLDGGARGQNACSEIYIHGLGLAINRAINIALQLQAGSFGSLQVAANTSTVELVDELEPETDTREPLTRIRNNSAIHIRVFRVTPK
notes: POP7; protein on the human proteome microarray; source: spotted on the HuProt human proteome microarray
B8: NECAP2 (natural protein, human, UniProt Q9NVZ3 1-263, looked up)
chain: MEESGYESVLCVKPDVHVYRIPPRATNRGYRAAEWQLDQPSWSGRLRITAKGQMAYIKLEDRTSGELFAQAPVDQFPGTAVESVTDSSRYFVIRIEDGNGRRAFIGIGFGDRGDAFDFNVALQDHFKWVKQQCEFAKQAQNPDQGPKLDLGFKEGQTIKLNIANMKKKEGAAGNPRVRPASTGGLSLLPPPPGGKTSTLIPPPGEQLAVGGSLVQPAVAPSSGGAPVPWPQPNPATADIWGDFTKSTGSTSSQTQPGTGWVQF
notes: NECAP2; protein on the human proteome microarray; source: spotted on the HuProt human proteome microarray
B9: LOR (natural protein, human, UniProt P23490 1-312, looked up)
chain: MSYQKKQPTPQPPVDCVKTSGGGGGGGGSGGGGCGFFGGGGSGGGSSGSGCGYSGGGGYSGGGCGGGSSGGGGGGGIGGCGGGSGGSVKYSGGGGSSGGGSGCFSSGGGGSGCFSSGGGGSSGGGSGCFSSGGGGSSGGGSGCFSSGGGGFSGQAVQCQSYGGVSSGGSSGGGSGCFSSGGGGGSVCGYSGGGSGCGGGSSGGSGSGYVSSQQVTQTSCAPQPSYGGGSSGGGGSGGSGCFSSGGGGGSSGCGGGSSGIGSGCIISGGGSVCGGGSSGGGGGGSSVGGSGSGKGVPICHQTQQKQAPTWPSK
notes: LOR; protein on the human proteome microarray; source: spotted on the HuProt human proteome microarray
B10: PDCD6 (natural protein, human, UniProt O75340 1-191, looked up)
chain: MAAYSYRPGPGAGPGPAAGAALPDQSFLWNVFQRVDKDRSGVISDTELQQALSNGTWTPFNPVTVRSIISMFDRENKAGVNFSEFTGVWKYITDWQNVFRTYDRDNSGMIDKNELKQALSGFGYRLSDQFHDILIRKFDRQGRGQIAFDDFIQGCIVLQRLTDIFRRYDTDQDGWIQVSYEQYLSMVFSIV
notes: PDCD6; protein on the human proteome microarray; source: spotted on the HuProt human proteome microarray
B11: NABP1 (natural protein, human, UniProt Q96AH0 1-204, looked up)
chain: MNRVNDPLIFIRDIKPGLKNLNVVFIVLEIGRVTKTKDGHEVRSCKVADKTGSITISVWDEIGGLIQPGDIIRLTRGYASMWKGCLTLYTGRGGELQKIGEFCMVYSEVPNFSEPNPDYRGQQNKGAQSEQKNNSMNSNMGTGTFGPVGNGVHTGPESREHQFSHAGRSNGRGLINPQLQGTASNQTVMTTISNGRDPRRAFKR
notes: NABP1; protein on the human proteome microarray; source: spotted on the HuProt human proteome microarray
B12: QKI (natural protein, human, UniProt Q96PU8 1-341, looked up)
chain: MVGEMETKEKPKPTPDYLMQLMNDKKLMSSLPNFCGIFNHLERLLDEEISRVRKDMYNDTLNGSTEKRSAELPDAVGPIVQLQEKLYVPVKEYPDFNFVGRILGPRGLTAKQLEAETGCKIMVRGKGSMRDKKKEEQNRGKPNWEHLNEDLHVLITVEDAQNRAEIKLKRAVEEVKKLLVPAAEGEDSLKKMQLMELAILNGTYRDANIKSPALAFSLAATAQAAPRIITGPAPVLPPAALRTPTPAGPTIMPLIRQIQTAVMPNGTPHPTAAIVPPGPEAGLIYTPYEYPYTLAPATSILEYPIEPSGVLGAVATKVRRHDMRVHPYQRIVTADRAATGN
notes: QKI; protein on the human proteome microarray; source: spotted on the HuProt human proteome microarray
B13: MPST (natural protein, human, UniProt P25325 1-297, looked up)
chain: MASPQLCRALVSAQWVAEALRAPRAGQPLQLLDASWYLPKLGRDARREFEERHIPGAAFFDIDQCSDRTSPYDHMLPGAEHFAEYAGRLGVGAATHVVIYDASDQGLYSAPRVWWMFRAFGHHAVSLLDGGLRHWLRQNLPLSSGKSQPAPAEFRAQLDPAFIKTYEDIKENLESRRFQVVDSRATGRFRGTEPEPRDGIEPGHIPGTVNIPFTDFLSQEGLEKSPEEIRHLFQEKKVDLSKPLVATCGSGVTACHVALGAYLCGKPDVPIYDGSWVEWYMRARPEDVISEGRGKTH
notes: MPST; protein on the human proteome microarray; source: spotted on the HuProt human proteome microarray
B14: MAGEB1 (natural protein, human, UniProt P43366 1-347, looked up)
chain: MPRGQKSKLRAREKRRKAREETQGLKVAHATAAEKEECPSSSPVLGDTPTSSPAAGIPQKPQGAPPTTTAAAAVSCTESDEGAKCQGEENASFSQATTSTESSVKDPVAWEAGMLMHFILRKYKMREPIMKADMLKVVDEKYKDHFTEILNGASRRLELVFGLDLKEDNPSGHTYTLVSKLNLTNDGNLSNDWDFPRNGLLMPLLGVIFLKGNSATEEEIWKFMNVLGAYDGEEHLIYGEPRKFITQDLVQEKYLKYEQVPNSDPPRYQFLWGPRAYAETTKMKVLEFLAKMNGATPRDFPSHYEEALRDEEERAQVRSSVRARRRTTATTFRARSRAPFSRSSHPM
notes: MAGEB1; protein on the human proteome microarray; source: spotted on the HuProt human proteome microarray
B15: MSI2 (natural protein)
chain: not shown
notes: MSI2; protein on the human proteome microarray; source: spotted on the HuProt human proteome microarray
B16: NUDT16L1 (natural protein, human, UniProt Q9BRJ7 1-211, looked up)
chain: MSTAAVPELKQISRVEAMRLGPGWSHSCHAMLYAANPGQLFGRIPMRFSVLMQMRFDGLLGFPGGFVDRRFWSLEDGLNRVLGLGLGCLRLTEADYLSSHLTEGPHRVVAHLYARQLTLEQLHAVEISAVHSRDHGLEVLGLVRVPLYTQKDRVGGFPNFLSNAFVSTAKCQLLFALKVLNMMPEEKLVEALAAATEKQKKALEKLLPASS
notes: NUDT16L1; protein on the human proteome microarray; source: spotted on the HuProt human proteome microarray
B17: OVOL2 (natural protein, human, UniProt Q9BRP0 1-275, looked up)
chain: MPKVFLVKRRSLGVSVRSWDELPDEKRADTYIPVGLGRLLHDPPEDCRSDGGSSSGSGSSSAGEPGGAESSSSPHAPESETPEPGDAEGPDGHLATKQRPVARSKIKFTTGTCSDSVVHSCDLCGKGFRLQRMLNRHLKCHNQVKRHLCTFCGKGFNDTFDLKRHVRTHTGIRPYKCNVCNKAFTQRCSLESHLKKIHGVQQQYAYKQRRDKLYVCEDCGYTGPTQEDLYLHVNSAHPGSSFLKKTSKKLAALLQGKLTSAHQENTSLSEEEERK
notes: OVOL2; protein on the human proteome microarray; source: spotted on the HuProt human proteome microarray
B18: MIF (natural protein, human, UniProt P14174 1-115, looked up)
chain: MPMFIVNTNVPRASVPDGFLSELTQQLAQATGKPPQYIAVHVVPDQLMAFGGSSEPCALCSLHSIGKIGGAQNRSYSKLLCGLLAERLRISPDRVYINYYDMNAANVGWNNSTFA
notes: MIF; protein on the human proteome microarray; source: spotted on the HuProt human proteome microarray
B19: PYCRL (natural protein, human, UniProt Q53H96 1-274, looked up)
chain: MAAAEPSPRRVGFVGAGRMAGAIAQGLIRAGKVEAQHILASAPTDRNLCHFQALGCRTTHSNQEVLQSCLLVIFATKPHVLPAVLAEVAPVVTTEHILVSVAAGVSLSTLEELLPPNTRVLRVLPNLPCVVQEGAIVMARGRHVGSSETKLLQHLLEACGRCEEVPEAYVDIHTGLSGSGVAFVCAFSEALAEGAVKMGMPSSLAHRIAAQTLLGTAKMLLHEGQHPAQLRSDVCTPGGTTIYGLHALEQGGLRAATMSAVEAATCRAKELSRK
notes: PYCRL; protein on the human proteome microarray; source: spotted on the HuProt human proteome microarray
B20: NME2 (natural protein, human, UniProt P22392 1-152, looked up)
chain: MANLERTFIAIKPDGVQRGLVGEIIKRFEQKGFRLVAMKFLRASEEHLKQHYIDLKDRPFFPGLVKYMNSGPVVAMVWEGLNVVKTGRVMLGETNPADSKPGTIRGDFCIQVGRNIIHGSDSVKSAEKEISLWFKPEELVDYKSCAHDWVYE
notes: NME2; protein on the human proteome microarray; source: spotted on the HuProt human proteome microarray

What follows are binders tested against T1, OTULIN (OTU deubiquitinase with linear linkage specificity, FAM105B), His-tagged, biotin-labelled (human, UniProt Q96BN8 1-352, biotin (label; sites not stated)) (assay: peptide or protein array; HuProt human proteome microarray; 5 ug/5 ml biotin-labelled LUBAC or OTULIN in solution, 1 h at room temperature; Cy5-streptavidin, scanned at 635 nm; BSA as negative control; hits: Z-score >= 3 and I_(Mean_Ratio) >= 1.4). Conditions: both partners purified.
T1 construct: OTULIN (FAM105B), cDNA in pET28a; also called HIS-OTULIN; source: E. coli BL21 (DE3), purified (His-tag Purification Resin), labelled with biotin; not shown: His6, N-terminal, kept
B1: binds.
B2: binds.
B3: binds.
B4: binds.
B5: binds.
B6: binds.
B7: binds.
B8: binds.
B9: binds.
B10: binds.
B11: binds.
B12: binds.
B13: binds.
B14: binds.
B15: binds.
B16: binds.
B17: binds.
B18: binds.
B19: binds.
B20: binds.
